Results published in PMC8389850, “The PilB-PilZ-FimX regulatory complex of the Type IV pilus from Xanthomonas citri” (PLoS Pathogens, 2021).

Legend:
[1] = target: PilZ_(W69_5OHW) (Xanthomonas citri pv. citri strain 306); assay: other fluorescence titration
[2] = target: PilB_(1-190), His tag removed (Xanthomonas citri pv. citri strain 306); assay: SEC-MALS
[3] = target: PilB_(12-163) (Xanthomonas citri pv. citri strain 306); assay: SEC-MALS
[4] = target: full-length FimX (Xanthomonas citri pv. citri strain 306); assay: SEC-MALS; full-length proteins and complexes; silica-based WTC column 7.8/300; 50 mM Tris-HCl pH 8.0, 50 mM NaCl, 5 mM MgCl2; without and with ATPγS and/or c-di-GMP (1:2 protein to ligand)

With FimXEAL (domain or fragment) the Kd [1] was 200 nM.
With “His-tagged PilB_(1-190) (from UniProt A0AAI7ZH88 1-190) (domain or fragment)” the Kd [1] was less than 4.1 nM.
“PilZ (XAC1133), wild type, recombinant (from UniProt A0AAI7ZDW4 1-117) (natural protein)” gave a stoichiometry N [2] of 1 and a stoichiometry N [3] of 1.
In the case of full-length FimX (natural protein), the stoichiometry N [4] is reported as 2.
